Measurements reported in the supplement of paper PMC9170038.

Test system: MS2 coat protein
Test: apparent KD of MS2 coat protein; designed switch direction (-1 OFF switch, 1 ON switch): 1; higher = weaker reporter binding
Outline: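 Designed RNA switches were transcribed on Illumina chips by stalled E. coli RNA polymerase and titrated with SNAP-549-labelled MS2 coat protein from 0.7 or 1.5 nM, doubling to 3 µM. Step length ran from 0.8–1.5 h at the lowest concentration to 10–20 min at the highest. The apparent KD is the median over clusters for each design, from curve-fitted normalised cluster fluorescence.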

[1] = Eterna round: R95, input ligand: FMN 200 uM
[2] = Eterna round: R95, input ligand: microRNA oligo, concentration not stated
[3] = Eterna round: R95, input ligand: none
[4] = input ligand: microRNA oligo, concentration not stated

Sequence | apparent KD of MS2 coat protein [1] | apparent KD of MS2 coat protein [2] | apparent KD of MS2 coat protein [3] | apparent KD of MS2 coat protein (input ligand: FMN 200 uM) | apparent KD of MS2 coat protein [4] | apparent KD of MS2 coat protein (input ligand: none)
CGUCCGGCCUGAGCUGGACGGAAGCUUGUACAUGAGGAUCACCCAUGUUCAUGUGCAGGCUUUUUGCUCGUCUUGUG [salish99_mir208a_modof_jandersonlee] (puzzle: Sensor for hsa-mir-208a) | 19.8 nM | 18.8 nM | 23.4 nM |  |  | 
CGUCCGGCCUGUGCUGGCCGGAUGCAUGUACAUGAGGAUCACCCAUGUUCAUGUGCAGGCUUUUUGCUCGUCUUGUG [salish99_mir208a_r3_008] (puzzle: Sensor for hsa-mir-208a) | 19.2 nM | 11.9 nM | 23.1 nM |  |  | 
CGUCGCUGUCGAGAGGAUAUGCGGUGAUGGACAUGAGGAUCACCCAUGUUAGCGAUAGCAUCGCGGCAGAAGGCUCUUACGACUG [Soteed Omei mod 28] (puzzle: Same State 2) | 18.6 nM | 19.8 nM | 23.7 nM |  |  | 
CGUCGUUUGAUAGGAUAUCGCUUUGCAUGAGGAUCACCCAUGUUUACCACGCUGGUUUUUCUUUCCGAGAAGGAUUCUGAUGUU [salish99_SSNG02_r04_024] (Eterna round: R96, puzzle: Same State NG 2) |  |  |  | 42 nM | 29.2 nM | 39.6 nM
CGUCGUUUGGUAGGAUAUCGCUAUACAUGAGGAUCACCCAUGUUUACCACGCUGGUUUUUCAUACCGAGAAGGAUUCUGAUGUU [salish99_SSNG02_r04_017] (Eterna round: R96, puzzle: Same State NG 2) |  |  |  | 16 nM | 14.9 nM | 19.8 nM
CGUUCAUACUCAGGACGGAGAGUAGAGGAACAUGAGGAUCACCCAUGUAUGAGCUUUUUGCUCGUCAUUAACAGUAG [JR_SHM208a_Sub012] (puzzle: Sensor for hsa-mir-208a) | 61.8 nM | 43.4 nM | 81.2 nM |  |  | 
CUACUACAUGAGGAUCACCCAUGUUAUAGUGAUGCAGGAUAUGUGUGACCAGAAGAUGAAACAGAAGGGCAAAGAA [JR_SS!_Sub001] (puzzle: Same State 1) | 31.4 nM | 33.1 nM | 30.1 nM |  |  | 
CUACUACAUGAGGAUCACCCAUGUUGUAGUGAUGCAGGAUAUGUGUGACCAGAAGAUGAAACAGAAGGGCAAAGAA [JR_SS!_Sub002] (puzzle: Same State 1) | 13.5 nM | 15.9 nM | 15.2 nM |  |  | 
CUCAAACAUGAGGAUCACCCAUGUGUUGUCAUGGGAGGAUAUCUAAGUUCAUUGUAUUCGGGAGAAGGCCUAUGUC [× ×•×ª×• ×ž×“×™× ×” × ×—×ª-09] (puzzle: Same State 1) |  | 362 nM |  |  |  | 
CUGACAUGUCAAGGAUAUCACGUCGAUUAGACGUGAGAAGGUGAUCUACACAUGAGGAUCACCCAUGUGUUACGUGGGAGUCAG [Brourd's SSNG1/1-A2 mod 19] (Eterna round: R96, puzzle: Same State NG 1) |  |  |  | 54.9 nM | 113 nM | 162 nM
CUGAGCAAUCGAGGAUAUCACGUCGUUUAGACGUGAGAAGGCGAUCAUAACAUGAGGAUCACCCAUGUAUUACAUGAAGCUCAG [SSNG1/4-A3] (Eterna round: R96, puzzle: Same State NG 1) |  |  |  | 13.6 nM | 10.1 nM | 13.3 nM
CUGAGCGAUCUAGGAUAUCACGUCGAUUAGACGUGAGAAGGAGAUCAUAACAUGAGGAUCACCCAUGUAUUACAUGAAGCUCAG [SSNG1/6-A2] (Eterna round: R96, puzzle: Same State NG 1) |  |  |  | 17.6 nM | 9.15 nM | 19.6 nM
CUUUAUCACUAUACAUGAGGAUCACCCAUGUUAUCAUCAUGAGAGGAUAUCGUAUUUGGAUUUUUCGAGAAGGCUCUUUUGUAU [JR_SSNG3_Sub076] (Eterna round: R96, puzzle: Same State NG 3) |  |  |  |  | 90.4 nM | 
CUUUUUAAUGCAGGAUAUGAUCAACAUGAGGAUCACCCAUGUGGUGUUGUGAGUAAGGAGAGUGAUCAGAAGGGCAUCUUUUCA [SS-NG2-LRO04] (Eterna round: R96, puzzle: Same State NG 2) |  |  |  | 737 nM | 415 nM | 435 nM
CUUUUUAGUGCAGGAUAUGAUCAACAUGAGGAUCACCCAUGUGGCGUUGUGAGUAGGGAGAGUGAUCAGAAGGGCGUCUCCUCG [SS-NG2-LRO10] (Eterna round: R96, puzzle: Same State NG 2) |  |  |  | 40.7 nM | 55.7 nM | 39.2 nM
GAAAAACAUGAGGAUCACCCAUGUGUAAACAAGGGAGGAUAUACAAAGACGUAAGUCAAAGUAGAAGGCCUAAAAG [Garnet 38] (Eterna round: R96, puzzle: Same State 1) |  |  |  | 19.6 nM | 54.3 nM | 71.8 nM

Sequence | apparent KD of MS2 coat protein [1] | apparent KD of MS2 coat protein [2] | apparent KD of MS2 coat protein [3] | apparent KD of MS2 coat protein (input ligand: FMN 200 uM) | apparent KD of MS2 coat protein [4] | apparent KD of MS2 coat protein (input ligand: none)
GAAAAGGCGACGCAGGAUAUGAAAGGUGAAACAUGAGGAUCACCCAUGUGCUACCUUCCGAUAAAUCAGAAGGGCGACGCCUAGA [Azaanre] (puzzle: Same State 2) | 11.4 nM | 9.79 nM | 11.3 nM |  |  | 
GAAUAAGUUUACGAGGAUAUGUUCCGCAUAACAUGAGGAUCACCCAUGUGAACAAGAAAGGCGACGCAGAAGGCGUGAGCAGAAG [Mat - Same State 2 - Mod of UCT - D100] (puzzle: Same State 2) | 23 nM | 11.4 nM | 117 nM |  |  | 
GAAUAGUUGAGAGGAUAUCUAUGAUAAAAGGAUAGAGAAGGUUUUAACAUGAGGAUCACCCAUGUAGGACUAUAUAUGUGAAUA [Parity 82 - Jieux - Same State NG 1] (Eterna round: R96, puzzle: Same State NG 1) |  |  |  | 12.5 nM | 11.9 nM | 16.9 nM
GAAUAGUUGAGAGGAUAUCUAUUAUAAAAGGAUAGAGAAGGUUUUAACAUGAGGAUCACCCAUGUAGGACUAUAUAUGUGAAUA [Parity 100 - Jieux - Same State NG 1] (Eterna round: R96, puzzle: Same State NG 1) |  |  |  | 16.2 nM | 13.6 nM | 16.1 nM
GACCGCGAGGAAGGAUAUGGAGCCUAAUAGGCUCCAGAAGGUCCAUAAAGGACAUGAGGAUCACCCAUGUGGGCUGAAGCGGUC [Mat - Same State NG 1 - JL mod - D74] (Eterna round: R96, puzzle: Same State NG 1) |  |  |  | 18.3 nM | 21.4 nM | 34.7 nM
GACUAUCUAUCUCAGGAUAUCAUGUCAAAGACAUGAGGAUCACCCAUGUACCAGGAAACUGGUUAUGAGAAGGGAGAUAGAUAGA [Mat - Same State 2 - Mod - D44] (puzzle: Same State 2) | 130 nM | 58.1 nM | 991 nM |  |  | 
GAGAGAGGGCGAGGAUAUUCGGUGAUAAUGAUGGAAGAAGGCGCAGACAUGAGGAUCACCCAUGUGGGAAUAAUCCAGAGAGAG [Parity 14 - Jieux - Same State NG 1] (Eterna round: R96, puzzle: Same State NG 1) |  |  |  | 206 nM | 101 nM | 131 nM
GAGAGAGGGUGAGGAUAUUUAGUGAUAAUGAUAAAAGAAGGCACAGACAUGAGGAUCACCCAUGUGGGAAUAAUCCAGAGAGAG [Parity 4 - Jieux - Same State NG 1] (Eterna round: R96, puzzle: Same State NG 1) |  |  |  |  | 238 nM | 
GAGAGGAUAUGGAGAGGAUCACCCUCUAGAAGGCUCGAAGGAGAGGAUAUGGAGAGGAUCACCCUCUAGAAGGCUCACUUCUCU [pwkr ssNG3 DX 2xF5 +2xFMN.6] (Eterna round: R96, puzzle: Same State NG 3) |  |  |  | 256 nM | 105 nM | 156 nM
GAGCCAGUCCGAGGAUAUUCAUAUUAACAUGAGGAUCACCCAUGUAGGCUCAGAAAGGAGCCUUGGGAGAAGGCGGACUGGCUC [Xeonanisa<<2] (Eterna round: R96, puzzle: Same State NG 2) |  |  |  | 14.9 nM | 114 nM | 251 nM
GAGCCAGUCCGAGGAUAUUCGUAGUACCACAUGAGGAUCACCCAUGUGGGCUCAGAAGAGCCCUUGGAGAAGGCGGGCUGGCUC [SS-NG2-LRO20] (Eterna round: R96, puzzle: Same State NG 2) |  |  |  | 9.67 nM | 5.99 nM | 12.4 nM
GAGCCAGUCCGAGGAUAUUCGUAUUAACACAUGAGGAUCACCCAUGUGGGCUCAGAAGAGCCCUGGGAGAAGGCGGGCUGGCUC [SS-NG2-LRO17] (Eterna round: R96, puzzle: Same State NG 2) |  |  |  | 11.8 nM | 30.9 nM | 48.4 nM
GAGGGACAGACCAACAUGAGGAUCACCCAUGUCCUCGCAGGUCAGGAUAUCAUGAGGAUCACCCAUGAGAAGGGACGGUGAACC (Eterna round: R96, puzzle: Same State NG 3) |  |  |  | 155 nM | 125 nM | 149 nM
GAGUGGUUGGGAGGAUAUGCAUUGUUAUUAAAUGCAGAAGGUUUUAACAUGAGGAUCACCCAUGUAGGACUAUUCCUGUGUUUC [Parity 68 - Jieux - Same State NG 1] (Eterna round: R96, puzzle: Same State NG 1) |  |  |  |  | 12.6 nM | 
GAGUUACAUGAGGAUCACCCAUGUUGUUGUGGAUAAGGAUAUAUGGUAGGAAGAGGAAUGAUAGAAGGUAUUAGGG [JR_SS1_Sub064] (puzzle: Same State 1) |  | 34.7 nM |  |  |  | 
